From CN111848803A come the findings set out here.

Assay [1] has as its target GPC3ΔGPI-FLAG重组蛋白 (Homo sapiens (Human)) (UniProt P51654). The assay is described as follows: ELISA on coated GPC3ΔGPI-FLAG after 2 h treatment of the antibody at pH 2. In general terms: An ELISA detects its analyte on a solid surface through an enzyme-linked reagent.
The target is the same in assay [2]. The experiment in a line: ELISA on coated GPC3ΔGPI-FLAG after 2 h treatment of the antibody at pH 10.
In assay [3] the target is mCherry-GPC3 (on stably expressing HEK293T cells) (UniProt P51654). The assay is described as follows: immunofluorescence colocalisation on HEK293T cells expressing mCherry-GPC3.

Molecule HN3-hFc融合抗体 (Fc fusion) showed a 抗原结合能力下降 (A450 against pH 7), antibody treated at pH 2 in assay [1] of 47.9%. In addition, the 抗原结合能力下降 (A450 against pH 7), antibody treated at pH 10 in assay [2] was determined as 28.2%.

B1: 纳米抗体G10 (G10-His, GPC3 nanobody) (VHH, not shown: small tags and cut ends)
VHH: QVQLVESGGALVQPGGSLRLSCAASGMTGIFWRLRWYRQAPGKEREWVCGISQLPTPASYEDSVKGRFTCSRDDARNTVYLQLNSLKPEDTAVYYCAAANVLPGLPAELPIYWGQGTQVTVSS
B1 had a 皮尔森相关系数 (Pearson correlation of mCherry and Alexa Fluor 488 signals) in assay [3] of 0.94. Further, in assay [1], the 抗原结合能力下降 (A450 against pH 7), antibody treated at pH 2 was found to be 26.1%. The 抗原结合能力下降 (A450 against pH 7), antibody treated at pH 10 in assay [2] is 14.4%.
